According to patent publication US11054430B2, “Compounds and methods for the detection of methotrexate” (Defined Diagnostics, LLC, priority 2015, dated 2021):
Residue numbers refer to the chain shown, from its start.

Assays:
Format in all cases: binding
Conditions in all cases: chemical spiked at 100 μM; calculated MTX concentration divided by 100 μM
[1] = MTX antibody cross-reactivity with 7-OH-MTX (competitive assay)
Protocol: (§1) The 4 selected MTX antibodies, 10C7, 45C11, 6D4, 19A6, were evaluated for cross-reactivity with MTX metabolites and related compounds (7-OH-MTX, DAMPA, Folic Acid and Folinic Acid). The amount of cross-reactivity with each chemical is defined as the percent ratio of the calculated MTX concentration of the chemical divided by 100 μM, which was the spiked concentration of the chemical.

[2] = MTX antibody cross-reactivity with DAMPA (competitive assay)
Protocol: as §1

[3] = MTX antibody cross-reactivity with Folic Acid (competitive assay)
Protocol: as §1

[4] = MTX antibody cross-reactivity with Folinic Acid (competitive assay)
Protocol: as §1

B1: mAb 10C7: anti-methotrexate mouse monoclonal antibody; variable heavy chain SEQ ID NO:3, variable light chain SEQ ID NO:4 (antibody, V domains shown)
VH: EVQLVESGGGLVKPGGSLRLSCAASGFTFRTYAMSWVRQTPEKRLEWVATITSGGTYIYYLDSVKGRFTISRDNAKNVLYLQMSSLRSEDTAMYYCVRLYGYDGMDYWGQGTSVTVSA
VL: QAVVTQESALTTSPGETVTLTCRSSTGAVSTSNYVNWVQEKPDHLFTGLIGGTKNRVPGVPARFSGSLIGDKAALTITGAQTEDEAIYFCALWYTNHLVFGGGTKLTVL
modifications: mouse
For B1, the “% Cross-Reactivity with 7-OH-MTX” value [1] was 0.37%, the “% Cross-Reactivity with DAMPA” value [2] was 0.43% and the “% Cross-Reactivity with Folic Acid” value [3] was 0.24%. For the same molecule, the “% Cross-Reactivity with Folinic Acid” value [4] was 0.28%.

B2: mAb 6D4: anti-methotrexate mouse monoclonal antibody; variable heavy chain SEQ ID NO:11, variable light chain SEQ ID NO:12 (antibody, V domains shown)
VH: QIQLVQSGPELKKPGETVKISCKASGYTFTNYGMNWVKRAPGKGLKWMGWINPYTGEPTYADDFKGRFAFSLETSASTAYLQINNLKNEDMATYFCARNDYYYALDSWGQGTSVTVSS
VL: DVVMTQSPLSLPVSLGDQASISCRSSQSLVKSNGNTYLHWFLQKSGQSPKLLIYKVSNRFSGVPDRFSGSGSGTDFTLKISRVEAEDLGVYFCSQSTHVPWTFGGGTKLEIK
modifications: mouse
In the case of B2, the “% Cross-Reactivity with 7-OH-MTX” value [1] is reported as 0.91%, the “% Cross-Reactivity with DAMPA” value [2] is reported as 0.52% and the “% Cross-Reactivity with Folic Acid” value [3] is reported as 0.48%. For the same molecule, the “% Cross-Reactivity with Folinic Acid” value [4] was 0.24%.

B3: mAb 19A6: anti-methotrexate mouse monoclonal antibody; variable heavy chain SEQ ID NO:7, variable light chain SEQ ID NO:8 (antibody, V domains shown)
VH: QIQLVQSGPELKRPGETVKISCKASGYTYTYYGINWLKQAPGKDLKWMGWINPYTGEPAYADDFKGRFAFSLETSATTTYLQINNLKNEDMATYFCARNSYYYALDYWGQGTSVTVSS
VL: B2 VL with S7T, S14N, S28N, S45P
modifications: mouse
With B3 the “% Cross-Reactivity with 7-OH-MTX” value [1] was 0.76%, the “% Cross-Reactivity with DAMPA” value [2] was 0.029% and the “% Cross-Reactivity with Folic Acid” value [3] was 0.073%. The “% Cross-Reactivity with Folinic Acid” value [4] was 0.11%.
